The results in this text go back to publication PMC6070864, “The Bacteriophage T4 MotB Protein, a DNA-Binding Protein, Improves Phage Fitness”.

Data set [1] has as its target T1, MotB-His (Enterobacteria phage T4, UniProt Q01437 1-162).
T1 sequence: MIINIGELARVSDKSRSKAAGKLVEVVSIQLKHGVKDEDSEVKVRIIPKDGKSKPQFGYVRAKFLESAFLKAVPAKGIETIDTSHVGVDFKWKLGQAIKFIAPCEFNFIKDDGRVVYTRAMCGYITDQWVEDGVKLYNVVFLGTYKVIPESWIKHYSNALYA
Put plainly: EMSA; apparent Kd (50% shift); 4 mM Mg acetate; Oligo EMSA/footprint: 40 mM Tris acetate pH 7.9, 20 mM Tris-HCl pH 8.0, 2 mM K phosphate, 60 mM NaCl, 150 mM K glutamate, 4 mM Mg acetate, 0.52 mM EDTA, 0.14 mM DTT, 0.1 mg/mL BSA, 0.004% Triton X-100, 30% glycerol, 1 nM DNA (5 nM in footprint), 37 C 10 min; T4/lambda EMSA: 20 mM Tris-HCl pH 8, 2 mM K phosphate, 60 mM NaCl, 0.42 mM EDTA, 0.04 mM DTT, 0.004% Triton …. The settings on record: protein: recombinant; tags: C-terminal His6; label: 5'-32P top strand. For orientation: In EMSA bound probe runs differently from free probe, usually more slowly.

The target in data set [2] is T1, MotB-His. Description: EMSA; 4 mM Mg acetate; Oligo EMSA/footprint: 40 mM Tris acetate pH 7.9, 20 mM Tris-HCl pH 8.0, 2 mM K phosphate, 60 mM NaCl, 150 mM K glutamate, 4 mM Mg acetate, 0.52 mM EDTA, 0.14 mM DTT, 0.1 mg/mL BSA, 0.004% Triton X-100, 30% glycerol, 1 nM DNA (5 nM in footprint), 37 C 10 min; T4/lambda EMSA: 20 mM Tris-HCl pH 8, 2 mM K phosphate, 60 mM NaCl, 0.42 mM EDTA, 0.04 mM DTT, 0.004% Triton X-100, 30% glycerol, 37 C 10 …. To be noted: protein: recombinant; tags: C-terminal His6; label: 5'-32P.

B1: dsP8 (37 bp) (dsDNA)
DNA 1: CAGAGACTATAATTAATAAATACAAAAACTATAAATG
DNA 2: CATTTATAGTTTTTGTATTTATTAATTATAGTCTCTG
On to B1, for which, in data set [1], the Kd amounted to 100 ± 30 nM. Consider CAGAGACTATAATTAATAAATACAAAAACTATAAATG (ssDNA) [ssP8 (37 nt)], for which the binding signal in data set [2] was ~6 fold lower affinity than dsP8.
